System: MS2 coat protein
Test: apparent KD of MS2 coat protein; designed switch direction (-1 OFF switch, 1 ON switch): -1; higher = weaker reporter binding
Summary of the method: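 Apparent KD, taken as the median over clusters for each design, was obtained by curve-fitting normalised cluster fluorescence. Designed RNA switches had been transcribed on Illumina chips by stalled E. coli RNA polymerase and titrated with SNAP-549-labelled MS2 coat protein, doubling from 0.7 or 1.5 nM to 3 µM.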

[1] = Eterna round: R95, input ligand: FMN 200 uM
[2] = Eterna round: R95, input ligand: microRNA oligo, concentration not stated
[3] = Eterna round: R95, input ligand: none

Sequence | apparent KD of MS2 coat protein (input ligand: FMN 200 uM) [nM] | apparent KD of MS2 coat protein (input ligand: none) [nM] | apparent KD of MS2 coat protein (input ligand: microRNA oligo, concentration not stated) [nM] | apparent KD of MS2 coat protein [1] [nM] | apparent KD of MS2 coat protein [2] [nM] | apparent KD of MS2 coat protein [3] [nM]
UAUUAAGCAAGCAGAUCCCACAUGAGGAUCACCCAUGUGCUCGUCUUAUAAGGUACUGUGACGAGAGUCACGGUACC [Mat - Sensor, turn-off var - Eli Mod - D69] (Eterna round: R97, puzzle: Sensor, turn-off variant 1) | 165 | 129 | – | – | – | –
UAUUAGCAAGCAACUGGGUACAUGAGGAUCACCCAUGUGCUCGUCUUAUAAGGUACUGUGACGAAAUUCACGGUACC [mod--Eli13] (Eterna round: R97, puzzle: Sensor, turn-off variant 1) | 21.1 | 18.6 | – | – | – | –
UAUUAGCAAGCAAGAUCCCACAUGAGGAUCACCCAUGUGCUCGUCUUAUAAGGUACUGUGACGAUAGUCACGGUACC [Mat - Sensor, turn-off var - Eli Mod - D46] (Eterna round: R97, puzzle: Sensor, turn-off variant 1) | 60.5 | 54.1 | – | – | – | –
UAUUAGCAAGCGAGAUCCCACAUGAGGAUCACCCAUGUGCUCGUCUUAAGCCCAGAAUUACUGGGCGCUCGUCUUAU [Winner reversed engineered 20] (Eterna round: R97, puzzle: Sensor, turn-off variant 1) | 13.1 | 12.7 | – | – | – | –
UAUUAGCAAGCGAGAUCCCACAUGAGGAUCACCCAUGUGCUCGUCUUAUAAGGUACUGUGACGAAAGUCACGGUACC [Sensor 3, v1 - 91] (Eterna round: R96, puzzle: Sensor v3, turn-off variant 1) | 11.5 | 15.5 | 298 | – | – | –
UAUUAGCAAGCGAGAUCCCACAUGAGGAUCACCCAUGUGCUCGUCUUAUAAGGUACUGUGACGAAAGUCACGGUACC [Sensor 3, v1 - 91] (puzzle: Sensor v3, turn-off variant 1) | – | – | – | 12.6 | 441 | 10.8
UAUUAGCAAGCGAGAUCCCACAUGAGGAUCACCCAUGUGCUCGUCUUAUAAGGUACUGUGACGAAAGUCACGGUACC [Sensor 3, v1 - 95 v5] (Eterna round: R97, puzzle: Sensor, turn-off variant 1) | 16.8 | 15.3 | – | – | – | –
UAUUAGCAAGCUAGAUCCCACAUGAGGAUCACCCAUGUGCUCGUCUUAUAAGGUACUGUGACGAAAGUCACGGUACC [Sensor 3, v1 - 96] (puzzle: Sensor v3, turn-off variant 1) | – | – | – | 56.8 | 798 | 57.5
UAUUAGCAAGUAAGAUCCCACAUGAGGAUCACCCAUGUGCUCGUCAUAUCACGUACUGUGAGGAAACUCACGGUACG [Sensor-V1 #85] (Eterna round: R97, puzzle: Sensor, turn-off variant 1) | 114 | 128 | – | – | – | –
UAUUCGCAAGCGAGAUCCCACAUGAGGAUCACCCAUGUGCUCGUCUUAUAAGGUACUGUGACGAUAGUCACGGUACC [Mat - Sensor, turn-off var - Eli Mod - D81] (Eterna round: R97, puzzle: Sensor, turn-off variant 1) | 16.7 | 16.3 | – | – | – | –
UAUUCGCAAGUGAGAUCCCACAUGAGGAUCACCCAUGUGCUCGUCUUAUAAGGUACUGUGACGAUAGUCACGGUACC [Mat - Sensor, turn-off var - Eli Mod - D80] (Eterna round: R97, puzzle: Sensor, turn-off variant 1) | 30.9 | 32.5 | – | – | – | –

— the supplement of paper PMC9170038
